In data set [1] the test system is KDM5C ARID K101A/R107A (Homo sapiens). Put plainly: EMSA. Conditions: EMSA: 50 mM HEPES pH 7.5, 50 mM KCl, 1 mM BME, 0.01% Tween-20, 0.01% BSA, 5% sucrose, 1 h on ice; 100 nM nucleosome or 147 bp DNA, 500 nM 20 bp DNA; gel at 4 C.; scale: fold reduction.
Data set [2] deals with KDM5C1-839 D343A (Homo sapiens). Put plainly: EMSA. As to conditions: apparent Kd, EMSA: 50 mM HEPES pH 7.5, 50 mM KCl, 1 mM BME, 0.01% Tween-20, 0.01% BSA, 5% sucrose, 1 h on ice, 100 nM nucleosome or 147 bp DNA, gel at 4 C. On the technique in general: A gel shift assay detects complexes by their altered migration in electrophoresis.
In data set [3] the test system is KDM5C1-839 (Homo sapiens). As to the kind of experiment: EMSA. Conditions: EMSA: 50 mM HEPES pH 7.5, 50 mM KCl, 1 mM BME, 0.01% Tween-20, 0.01% BSA, 5% sucrose, 1 h on ice, 100 nM nucleosome or 147 bp DNA, 500 nM 20 bp DNA, gel at 4 C.; for Kd: apparent Kd.
The test system of data set [4] is KDM5C1-839 A388P (Homo sapiens). Put plainly: EMSA. Conditions: apparent Kd, EMSA: 50 mM HEPES pH 7.5, 50 mM KCl, 1 mM BME, 0.01% Tween-20, 0.01% BSA, 5% sucrose, 1 h on ice, 100 nM nucleosome or 147 bp DNA, gel at 4 C.
For data set [5], the system named is KDM5C1-839 D87G (Homo sapiens). As to the kind of experiment: EMSA. Conditions: apparent Kd, EMSA: 50 mM HEPES pH 7.5, 50 mM KCl, 1 mM BME, 0.01% Tween-20, 0.01% BSA, 5% sucrose, 1 h on ice, 100 nM nucleosome or 147 bp DNA, gel at 4 C.
In data set [6] the test system is KDM5C1-839 ΔAP (Homo sapiens). Put plainly: EMSA. As to conditions: apparent Kd, EMSA: 50 mM HEPES pH 7.5, 50 mM KCl, 1 mM BME, 0.01% Tween-20, 0.01% BSA, 5% sucrose, 1 h on ice, 100 nM nucleosome or 147 bp DNA, 500 nM 20 bp DNA, gel at 4 C.
In data set [7] the target is H3K4me3 187 bp mononucleosome (human) (UniProt P68431). Put plainly: native gel or EMSA; 100 nM nucleosome with various concentrations of KDM5C; 50 mM HEPES pH 7.5, 50 mM KCl, 1 mM BME, 0.01% Tween-20, 0.01% BSA, 5% sucrose; 1 hr on ice; native 7.5% PAGE at 4 °C; apparent dissociation constants from a cooperative binding fit.
For data set [8], the target named is H3K4me3 147 bp mononucleosome (human) (UniProt P68431). The data set is described as above.
In data set [9] the target is unmodified 187 bp mononucleosome (human) (UniProt P68431). The description is as above.
Data set [10] deals with unmodified 147 bp mononucleosome (human) (UniProt P68431). Described as above.
Data set [11] concerns the target H3K4me3 187 bp mononucleosome (human) (UniProt P68431).
The target of data set [12] is H3K4me3 147 bp mononucleosome (human) (UniProt P68431).
In data set [13] the test system is KDM5C1-839 ΔAP A388P (Homo sapiens). Put plainly: EMSA. Conditions: apparent Kd; lower limit, saturation unattainable; EMSA: 50 mM HEPES pH 7.5, 50 mM KCl, 1 mM BME, 0.01% Tween-20, 0.01% BSA, 5% sucrose, 1 h on ice; 100 nM nucleosome or 147 bp DNA, 500 nM 20 bp DNA; gel at 4 C.
[14] abbreviates: histone H3K4me3, 500 nM 20 bp DNA.
Setting [15] is: lower limit, saturation unattainable.

Some results are limits rather than exact numbers.

KDM5C^1–839, sequence (P41229 1-839): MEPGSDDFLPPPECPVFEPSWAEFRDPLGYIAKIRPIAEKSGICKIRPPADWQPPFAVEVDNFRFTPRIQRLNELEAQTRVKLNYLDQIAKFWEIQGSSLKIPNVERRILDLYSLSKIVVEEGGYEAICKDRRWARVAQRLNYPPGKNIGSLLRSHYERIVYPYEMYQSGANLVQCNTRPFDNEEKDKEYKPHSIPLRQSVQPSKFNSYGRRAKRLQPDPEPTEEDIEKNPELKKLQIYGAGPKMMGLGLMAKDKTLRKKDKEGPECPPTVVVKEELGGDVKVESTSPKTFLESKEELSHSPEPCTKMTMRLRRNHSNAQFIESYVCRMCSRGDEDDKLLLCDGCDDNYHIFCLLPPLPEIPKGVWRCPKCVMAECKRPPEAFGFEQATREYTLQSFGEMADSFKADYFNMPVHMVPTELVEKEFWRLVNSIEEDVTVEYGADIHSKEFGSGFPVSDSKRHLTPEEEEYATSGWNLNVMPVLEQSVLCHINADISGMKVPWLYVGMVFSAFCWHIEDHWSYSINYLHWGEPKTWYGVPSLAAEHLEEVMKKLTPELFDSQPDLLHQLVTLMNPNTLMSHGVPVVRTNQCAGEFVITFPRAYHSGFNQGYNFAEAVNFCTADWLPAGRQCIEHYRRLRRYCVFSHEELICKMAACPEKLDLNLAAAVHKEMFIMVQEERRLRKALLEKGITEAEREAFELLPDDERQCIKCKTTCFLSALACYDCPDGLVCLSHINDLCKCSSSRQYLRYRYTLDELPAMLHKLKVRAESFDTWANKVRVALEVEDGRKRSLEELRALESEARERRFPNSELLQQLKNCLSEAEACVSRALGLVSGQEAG

Take 147 bp 601 DNA: in data set [1], the binding signal is 22.
In the case of H3K4me3 147 bp core nucleosome, the Kd was 8.9 µM in data set [2] (setting [14]); 6.9 µM in [3] (Hill n 2.3, histone H3K4me3); 3.7 µM in data set [4] (setting [14]); 2.3 µM in data set [5] (setting [14]); 20 µM in data set [6] (Hill n 2.4, histone H3K4me3).
H3K4me3 187 bp nucleosome: the Kd is 4.7 µM in data set [2] (setting [14]), 7.3 µM in data set [3] (histone H3K4me3), 1.8 µM in [4] (setting [14]) and 1.3 µM in data set [5] (setting [14]).
For the substance “KDM5C^1–839 (from UniProt P41229-1 1-839) (domain or fragment)”, the Kd was found to be 7 µM in [7], 7 µM in data set [8] and 13 µM in [10]. Moreover, the fold gain in affinity against the core (147 bp) nucleosome in data set [9] was 3 fold.
As to “KDM5C^1–839 A388P (from UniProt P41229-1 1-839) (domain or fragment)”, in data set [7], the fold gain in affinity against the H3K4me3 core nucleosome is 2 fold. Moreover, in data set [9], the Kd turned out to be 1 µM.
Turning to “KDM5C^1–839 D87G (from UniProt P41229-1 1-839) (domain or fragment)”, the fold gain in affinity against the H3K4me3 core nucleosome in [7] amounted to 2 fold. For the same substance, in [9], the Kd amounted to 1 µM. In addition, the catalytic efficiency kmax/Km^app of demethylation of the 187 bp H3K4me3 nucleosome (TR-FRET, single turnover), against wild type KDM5C^1–839 in [11] came out at 2 fold. In addition, the catalytic efficiency kmax/Km^app of demethylation of the H3K4me3 core nucleosome (TR-FRET, single turnover), increase against wild type KDM5C^1–839 in [12] was determined as 3 fold.
As to “KDM5C^1–839 D343A (from UniProt P41229-1 1-839) (domain or fragment)”, the Kd in data set [7] worked out at 4.7 µM; in [8], 8.9 µM; in [9], 3.2 µM; in data set [10], 8.4 µM.
Consider “KDM5C^(1–839 ΔAP) (from UniProt P41229-1 1-82; P41229-1 379-839) (domain or fragment)”, for which the fold reduction in affinity against KDM5C^1–839 in data set [8] and in data set [10] was 3 fold each time.
As to unmodified 147 bp core nucleosome, the Kd was 8.4 µM in data set [2] (500 nM 20 bp …), greater than 45 µM in data set [13], greater than 12.5 µM in data set [3] (setting [15]) and greater than 35 µM in data set [6] (setting [15]).
Consider unmodified 187 bp nucleosome, for which the Kd in [2] (500 nM 20 bp …) was 3.2 µM; in data set [4] (500 nM 20 bp …), 1 µM; in data set [5] (500 nM 20 bp …) it was 1 µM. The same substance returned a binding signal in [3] (scale: fold gain in affinity vs 147 bp nucleosome) of 3.

Values taken from publication PMC10247153.
